Experiment [1] deals with T1, KRAS G12V 7-16, P9D peptide on HLA-A*11:01 (human).
T1 peptide: VVVGAVGVDK
Briefly: cytokine release.

Experiment [2] concerns the target T2, KRAS G12V 7-16, P3C peptide on HLA-A*11:01 (human).
T2 peptide: VVCGAVGVGK
Briefly: cytokine release.

Experiment [3] concerns the target T3, KRAS G12V 7-16, P9Q peptide on HLA-A*11:01 (human).
T3 peptide: VVVGAVGVQK
Briefly: cytokine release.

The target of experiment [4] is T4, KRAS G12V 7-16, P6I peptide on HLA-A*11:01 (human).
T4 peptide: VVVGAIGVGK
Briefly: cytokine release.

Experiment [5] deals with T5, KRAS G12V 7-16, P5P peptide on HLA-A*11:01 (human).
T5 peptide: VVVGPVGVGK
Briefly: cytokine release.

The target of experiment [6] is T6, KRAS G12V 7-16, P5T peptide on HLA-A*11:01 (human).
T6 peptide: VVVGTVGVGK
The experiment can be described thus: cytokine release.

Experiment [7] deals with T7, KRAS G12V 7-16, P3M peptide on HLA-A*11:01 (human).
T7 peptide: VVMGAVGVGK
Briefly: cytokine release.

The target of experiment [8] is T8, KRAS G12V 7-16, P3Q peptide on HLA-A*11:01 (human).
T8 peptide: VVQGAVGVGK
The experiment can be described thus: cytokine release.

Experiment [9] addresses T9, KRAS G12V 7-16, P8I peptide on HLA-A*11:01 (human).
T9 peptide: VVVGAVGIGK
The experiment can be described thus: cytokine release.

For experiment [10], the target named is T10, KRAS G12V 7-16, P9N peptide on HLA-A*11:01 (human).
T10 peptide: VVVGAVGVNK
Briefly: cytokine release.

In experiment [11] the target is T11, KRAS G12V 7-16, P5S peptide on HLA-A*11:01 (human).
T11 peptide: VVVGSVGVGK
The experiment can be described thus: cytokine release.

Experiment [12] deals with T12, KRAS G12V 7-16, P8G peptide on HLA-A*11:01 (human).
T12 peptide: VVVGAVGGGK
The experiment can be described thus: cytokine release.

Experiment [13] has as its target T13, KRAS G12V 7-16, P8L peptide on HLA-A*11:01 (human).
T13 peptide: VVVGAVGLGK
Briefly: cytokine release.

Experiment [14] concerns the target T14, KRAS G12V 7-16, P3S peptide on HLA-A*11:01 (human).
T14 peptide: VVSGAVGVGK
The experiment can be described thus: cytokine release.

Experiment [15] concerns the target T15, KRAS G12V 7-16, P1A peptide on HLA-A*11:01 (human).
T15 peptide: AVVGAVGVGK
The experiment can be described thus: cytokine release.

For experiment [16], the target named is T16, KRAS G12V 7-16, P8F peptide on HLA-A*11:01 (human).
T16 peptide: VVVGAVGFGK
Briefly: cytokine release.

Experiment [17] deals with T17, KRAS G12V 7-16, P3G peptide on HLA-A*11:01 (human).
T17 peptide: VVGGAVGVGK
Briefly: cytokine release.

The target of experiment [18] is T18, KRAS G12V 7-16, P5V peptide on HLA-A*11:01 (human).
T18 peptide: VVVGVVGVGK
Briefly: cytokine release.

The target in experiment [19] is T19, KRAS G12V 7-16, P3E peptide on HLA-A*11:01 (human).
T19 peptide: VVEGAVGVGK
Briefly: cytokine release.

Experiment [20] has as its target T20, KRAS G12V 7-16, P3A peptide on HLA-A*11:01 (human).
T20 peptide: VVAGAVGVGK
Briefly: cytokine release.

For experiment [21], the target named is T21, KRAS G12V 7-16, P2I peptide on HLA-A*11:01 (human).
T21 peptide: VIVGAVGVGK
The experiment can be described thus: cytokine release.

The target of experiment [22] is T22, KRAS G12V 7-16, P5C peptide on HLA-A*11:01 (human).
T22 peptide: VVVGCVGVGK
The experiment can be described thus: cytokine release.

The target in experiment [23] is T23, KRAS G12V 7-16, P9A peptide on HLA-A*11:01 (human).
T23 peptide: VVVGAVGVAK
The experiment can be described thus: cytokine release.

The target in experiment [24] is T24, KRAS G12V 7-16, P3I peptide on HLA-A*11:01 (human).
T24 peptide: VVIGAVGVGK
The experiment can be described thus: cytokine release.

Experiment [25] deals with T25, KRAS G12V 7-16, P9S peptide on HLA-A*11:01 (human).
T25 peptide: VVVGAVGVSK
The experiment can be described thus: cytokine release.

Experiment [26] deals with KRAS G12V 7-16 epitope peptide … presented by HLA-A*11:01 (human). Briefly: cell-based or functional assay.
In experiment [27] the target is T26, KRAS G12V peptide on HLA-A*11:01 (human).
T26 peptide: VVVGAVGVGK
The experiment can be described thus: NFAT-GFP reporter in Jurkat (endogenous TCR knocked out); T2 cells loaded with 1e-5 to 1e-9 M target antigen peptide; full-length, on cells.

Experiment [28] concerns the target T26, KRAS G12V peptide on HLA-A*11:01. The experiment can be described thus: luciferase killing assay; TCR-T cells with T2KO-A1101 cells loaded with 1e-5 to 1e-11 M peptide, E:T 9:1, 20 h; Figure 5C; full-length, on cells.
Experiment [29] has the same target. Briefly: IFN-gamma ELISA; TCR-T cells with T2KO-A1101 cells loaded with 1e-5 to 1e-11 M peptide, E:T 1:1, 20 h; Figure 6C; full-length, on cells. On the technique in general: ELISA stands for enzyme-linked immunosorbent assay.
Experiment [30] addresses T27, KRAS G12V 7-16, P6L peptide on HLA-A*11:01 (human).
T27 peptide: VVVGALGVGK
Briefly: cytokine release.

The target in experiment [31] is T28, KRAS G12V 7-16, P7Q peptide on HLA-A*11:01 (human).
T28 peptide: VVVGAVQVGK
Briefly: cytokine release.

The target in experiment [32] is T29, KRAS G12V 7-16, P1T peptide on HLA-A*11:01 (human).
T29 peptide: TVVGAVGVGK
The experiment can be described thus: cytokine release.

Experiment [33] concerns the target T30, KRAS G12V 7-16, P8C peptide on HLA-A*11:01 (human).
T30 peptide: VVVGAVGCGK
The experiment can be described thus: cytokine release.

In experiment [34] the target is T31, KRAS G12V 7-16, P7A peptide on HLA-A*11:01 (human).
T31 peptide: VVVGAVAVGK
Briefly: cytokine release.

For experiment [35], the target named is T32, KRAS G12V 7-16, P8T peptide on HLA-A*11:01 (human).
T32 peptide: VVVGAVGTGK
The experiment can be described thus: cytokine release.

For experiment [36], the target named is KRAS G12D 7-16 epitope peptide … presented by HLA-A*11:01 (human). Briefly: cell-based or functional assay.
Experiment [37] has as its target T33, KRAS G12D peptide on HLA-A*11:01 (human).
T33 peptide: VVVGADGVGK
Briefly: NFAT-GFP reporter in Jurkat (endogenous TCR knocked out); T2 cells loaded with 1e-5 to 1e-9 M target antigen peptide; full-length, on cells.

The target in experiment [38] is T33, KRAS G12D peptide on HLA-A*11:01. Briefly: IFN-gamma ELISA; TCR-T cells with T2KO-A1101 cells loaded with 1e-5 to 1e-11 M peptide, E:T 1:1, 20 h; Figure 6D; full-length, on cells.

B1: KVA11-N02 (TCR, V domains shown)
Valpha: AQSVAQPEDQVNVAEGNPLTVKCTYSVSGNPYLFWYVQYPNRGLQFLLKYITGDNLVKGSYGFEAEFNKSQTSFHLKKPSALVSDSALYFCAVRDIEGAGNNRKLIWGLGTSLAVNP
Vbeta: DAGVIQSPRHEVTEMGQEVTLRCKPISGHNSLFWYRQTMMRGLELLIYFNNNVPIDDSGMPEDRFSAKMPNASFSTLKIQPSEPRDSAVYFCASSEGFYTEAFFGQGTRLTVV
In the case of B1, the binding result in experiment [1], in experiment [2], in experiment [3], in experiment [4], in [5] and in [6] was “recognises” throughout. Also, the binding result in experiment [7], in experiment [8], in experiment [9], in experiment [10], in [11] and in [12] was “recognises” each time. The binding result in experiment [13], in [14], in experiment [15], in [16], in [17] and in experiment [18] was “recognises” each time. Besides, the binding result in [19], in experiment [20], in [21], in experiment [22], in experiment [23] and in experiment [24] was “recognises” each time. Besides, the binding result in experiment [25] was “recognises”.

B2: KVA11-N04 (TCR, V domains shown)
Valpha: GESVGLHLPTLGVQEGDNSIINCAYSNSASDYFIWYKQESGKGPQFIIDIRSNMDKRQGQRVTVLLNKTVKHLSLQIAATQPGDSAVYFCAENSDGTSYGKLTFGQGTILTVHP
Vbeta: EAGVAQSPRYKIIEKRQSVAFWCNPISGHATLYWYQQILGQGPKLLIQFQNNGVVDDSQLPKDRFSAERLKGVDSTLKIQPAKLEDSAVYLCASSLVGSPDYEQYFGPGTRLTVT
With B2, the EC50 of IFN-γ secretion with peptide-loaded T2KO-A1101 cells (ELISA, E:T 1:1, 20 hours) in experiment [26] turned out to be 22 nM. For the same molecule, the EC50 of NFAT-GFP reporter activation, TCR in Jurkat-NFAT cells with peptide-loaded T2 cells in experiment [26] was found to be 28.9 nM. The same molecule gave an EC50 of killing of peptide-loaded T2KO-A1101 cells (luciferase, E:T 9:1, 20 hours) in [26] of 0.973 nM. The EC50 of peptide in experiment [27] worked out at 28.9 nM; in [28], 0.973 nM; in experiment [29], 22 nM. In addition, the binding result in experiment [4], in [30], in experiment [9], in [11], in [31] and in experiment [17] was “recognises” in each case. The binding result in experiment [32], in experiment [20], in [33], in [34], in experiment [21] and in experiment [22] was “recognises” in each case. Moreover, the binding result in experiment [35] and in experiment [24] was “recognises” in each case.

B3: KDA11-N01 (TCR, V domains shown)
Valpha: QKEVEQNSGPLSVPEGAIASLNCTYSDRGSQSFFWYRQYSGKSPELIMSIYSNGDKEDGRFTAQLNKASQYVSLLIRDSQPSDSATYLCAVNLGAAGNKLTFGGGTRVLVKP
Vbeta: EAGVAQSPRYKIIEKRQSVAFWCNPISGHATLYWYQQILGQGPKLLIQFQNNGVVDDSQLPKDRFSAERLKGVDSTLKIQPAKLEDSAVYLCASSFSDSYNSPLHFGNGTRLTVT
In [36], B3 returned an EC50 of IFN-γ secretion with peptide-loaded T2KO-A1101 cells (ELISA, E:T 1:1, 20 hours) of 49.6 nM. The EC50 of NFAT-GFP reporter activation, TCR in Jurkat-NFAT cells with peptide-loaded T2 cells in experiment [36] stood at 76.5 nM. The EC50 of peptide in experiment [37] stood at 76.5 nM; in experiment [38] it was 49.6 nM.

Source of the values: patent EP4660201A1 (dated 2025).
